From article PMC11381232, “Efficient expression and purification of rat CRP in Pichia pastoris” (Frontiers in Immunology, 2024)

Key:
[1] = molecular target: the molecule itself; test: negative-stain electron microscopy; CRP diluted to 0.15-0.3 mg/mL in 20 mM Tris pH 6.8, 150 mM NaCl, 2 mM CaCl2, 1-2 h at 18°C, 1% uranyl acetate; self-association, pentamer
[2] = molecular target: the molecule itself; test: SDS-PAGE and Western blot, non-reduced against reduced; yeast-secreted rCRP-6×His without or with 20 mM DTT, anti-His detection; disulfide-linked dimer of subunits

| Protein | stoichiometry N [1] | stoichiometry N [2] |
| --- | --- | --- |
| rat C-reactive protein purified from rat serum (natural protein, UniProt P48199 20-230, looked up, C-reactive protein, rat, endogenous protein from serum; Homopentamer by negative-stain EM and SEC; also called rCRP; rat CRP; source: purified from serum of turpentine-injected Wistar rats (p-Aminophenyl Phosphoryl Choline Agarose, DEAE, SEC)) HEDMSKQAFVFPGVSATAYVSLEAESKKPLEAFTVCLYAHADVSRSFSIFSYATKTSFNEILLFWTRGQGFSIAVGGPEILFSASEIPEVPTHICATWESATGIVELWLDGKPRVRKSLQKGYIVGTNASIILGQEQDSYGGGFDANQSLVGDIGDVNMWDFVLSPEQINAVYVGRVFSPNVLNWRALKYETHGDVFIKPQLWPLTDCCES | 5 |  |
| recombinant rat CRP with C-terminal 6×His tag, secreted from Pichia pastoris GS115 (natural protein, UniProt P48199 20-230, looked up, C-reactive protein, rat, wild type; the reverse primer ends at ...DCCES followed by GA and six histidines; Secreted by the S. cerevisiae alpha-factor signal of pPIC9K; By the reverse primer a Gly-Ala stands between CRP and the His6 tag; also called rCRP; rCRP-6×His fusion protein; source: P. pastoris GS115, secreted into the culture medium, purified (Ni2+-NTA, p-Aminophenyl Phosphoryl Choline …)) HEDMSKQAFVFPGVSATAYVSLEAESKKPLEAFTVCLYAHADVSRSFSIFSYATKTSFNEILLFWTRGQGFSIAVGGPEILFSASEIPEVPTHICATWESATGIVELWLDGKPRVRKSLQKGYIVGTNASIILGQEQDSYGGGFDANQSLVGDIGDVNMWDFVLSPEQINAVYVGRVFSPNVLNWRALKYETHGDVFIKPQLWPLTDCCES | 5 | 2 |
| recombinant rat CRP with N-terminal Strep-tag II, secreted from E. coli BL21 (DE3) (natural protein, UniProt P48199 20-230, looked up, C-reactive protein, rat, wild type, cDNA by NM_017096.3; so no native signal peptide; A bacterial signal peptide stood before the tag for secretion (text: alkaline phosphatase, ALP); also called rCRP; rCRPwt-pET42c) HEDMSKQAFVFPGVSATAYVSLEAESKKPLEAFTVCLYAHADVSRSFSIFSYATKTSFNEILLFWTRGQGFSIAVGGPEILFSASEIPEVPTHICATWESATGIVELWLDGKPRVRKSLQKGYIVGTNASIILGQEQDSYGGGFDANQSLVGDIGDVNMWDFVLSPEQINAVYVGRVFSPNVLNWRALKYETHGDVFIKPQLWPLTDCCES | 5 |  |
